Test [1] has as its target T1, human IL-13 (recombinant E. coli-expressed) (human, UniProt P35225 35-146).
T1 construct: also called hIL-13
Description: ProteOn XPR36 SPR, purified mAb captured on anti-human IgG, IL13 analyte, 1:1 fit; range over several runs. The procedure: (§1) The initial screen of CDRH3 mutants was carried out on the ProteOn XPR36 (Biorad). […] 3M MgCl₂ was used to regenerate the capture surface, removing the bound CDRH3 mutant antibodies ready for another cycle of capture and analyte injection. The data was fitted to the 1:1 model using the software inherent to the machine.

For test [2], the target named is T1, human IL-13 (recombinant E. …). The test can be described thus: Biacore T100 SPR, purified mAb captured on anti-human IgG, IL13 analyte, 1:1 fit. From the text:
(§2) Table 1 details the overall affinities (equilibrium dissociation constant KD) for the selected constructs from the ProteOn screen and the T100 run
In general terms: In SPR one partner is held on a chip, and binding of the other changes the refractive index at the surface.

The target is the same in test [3]. The description is as above.
Text: as §2
The source holds these as a separate data set.

Test [4] has the same target. The test can be described thus: ProteOn XPR36 SPR, mAb captured on anti-human IgG, IL13 analyte. The procedure: as §1
Test [5] has the same target. The test can be described thus: Biacore T100 SPR, mAb captured on anti-human IgG, IL13 analyte, 1:1 fit.
Text: as §2

Test [6] shares this target. Description: cell-based or functional assay.
For test [7] the target is unchanged. Description: Biacore T100 SPR, mAb captured on anti-human IgG, IL13 analyte. The procedure: as §2
In light of this, mutations at this residue that were not present in the initial screen were tested using the ProteOn using the same method as described earlier and again using antibodies direct from tissue culture supernatants.

For test [8] the target is unchanged. The test can be described thus: cell-based or functional assay. This is another data set of the same source.

T1 sequence (P35225 other isoform, or with tags, fused parts or gaps limits assumed): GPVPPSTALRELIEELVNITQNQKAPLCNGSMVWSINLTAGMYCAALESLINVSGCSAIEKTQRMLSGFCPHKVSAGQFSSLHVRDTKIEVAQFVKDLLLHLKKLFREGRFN

B1: A1L1 (antibody, human IgG1, kappa, V domains shown)
VH: QVQLVQSGAEVKKPGSSVKVSCKASGFYIKDTYMHWVRQAPGQGLEWMGTIDPANGNTKYVPKFQGRVTITADESTSTAYMELSSLRSEDTAVYYCARSIYDDYHYDDYYAMDYWGQGTLVTVSS
VL: DIVMTQSPLSLPVTPGEPASISCRSSQNIVHINGNTYLEWYLQKPGQSPRLLIYKISDRFSGVPDRFSGSGSGTDFTLKISRVEADDVGIYYCFQGSHVPWTFGQGTKLEIKR
notes: Humanised version of murine 6A1, human IgG1 kappa; also called parental; 586 (mAb)
For the molecule B1, the Kd in test [1] is 0.45 to 0.6 nM; in test [2] it was 0.366 nM; in test [3] it was 0.326 nM; in test [4], 0.39 to 0.46 nM; in test [5] it was 0.36 nM; in test [7], 0.346 nM. The koff in test [3] is 0.000368 s⁻¹; in test [5], 0.000456 s⁻¹. Moreover, the kon in test [3] worked out at 1.13e+06 M⁻¹ s⁻¹; in test [5] it was 1.27e+06 M⁻¹ s⁻¹. Further, the “Mean ND50 value (nM), TF-1 cell proliferation bioassay” value in test [6] worked out at 5.01 nM. In test [8], the “ND50 (nM), TF-1 cell proliferation bioassay” value turned out to be 9.77 nM.

In general, Kd refers to a measure of binding affinity in units of concentration. One may read the koff as the first-order rate constant of dissociation. By kon is commonly meant the rate constant with which the complex forms.
